2 molecules from paper PMC9868604, “Structural insights into 3Fe–4S ferredoxins diversity in M. tuberculosis highlighted by a first redox complex with P450” (Frontiers in Molecular Biosciences, 2022) can be followed below.

Common to all, as to details: both partners purified
Assay [1] addresses T1, CYP143 part of the FdxE-CYP143 fusion protein (M. tuberculosis, UniProt P9WPL3 2-393).
T1 construct: also called fusion FdxE–CYP143
The assay can be described thus: crystal structure; FdxE fused via a linker to the N-terminus of CYP143 on one chain; 1.6 Å; crystals in .2 M sodium chloride, .1 M Bis-Tris pH 6.0, 25% PEG3350, 20°C.

Assay [2] concerns the target T2, Biotinylated CYP143 with Avi-tag at the C-terminus (M. tuberculosis, UniProt P9WPL3 2-393, biotin (on the Avi-tag)).
T2 construct: also called CYP143A1; Rv1785c; not shown: Avi-tag, C-terminal, kept
The assay can be described thus: SPR. (Surface plasmon resonance follows binding to a sensor surface in real time, without labels.)

Assay [3] addresses T2, Biotinylated CYP143 with Avi-tag at the …. Put plainly: SPR; as a1, sensorgrams at 10, 15, 20, 25, 30 and 35°C; enthalpy from the slope of a Van't Hoff plot.

T2 sequence (P9WPL3 2-393): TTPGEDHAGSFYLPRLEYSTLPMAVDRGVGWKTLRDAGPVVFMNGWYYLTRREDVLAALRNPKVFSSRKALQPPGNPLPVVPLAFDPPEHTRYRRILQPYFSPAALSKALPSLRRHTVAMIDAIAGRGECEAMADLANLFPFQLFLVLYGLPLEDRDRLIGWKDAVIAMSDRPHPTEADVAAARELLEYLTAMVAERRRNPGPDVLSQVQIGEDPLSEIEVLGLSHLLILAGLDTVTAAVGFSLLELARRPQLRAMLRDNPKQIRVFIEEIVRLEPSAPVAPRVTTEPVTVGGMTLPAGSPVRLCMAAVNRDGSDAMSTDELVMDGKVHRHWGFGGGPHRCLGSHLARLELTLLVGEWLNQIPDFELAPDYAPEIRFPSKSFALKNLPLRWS
T1 sequence (P9WPL3 2-393): as above

B1: FdxE part of the FdxE-CYP143 fusion protein (domain or fragment)
chain: KVRLDPSRCVGHAQCYAVDPDLFPIDDSGNSILAEHEVRPEDMQLTRDGVAACPEMALILEEDDAD
notes: also called fusion FdxE–CYP143; not shown: His-tag, N-terminal, kept
As to B1, the binding result in assay [1] was “binds”.

B2: FdxE (Rv1786), 3Fe-4S ferredoxin of M. tuberculosis (natural protein)
chain: MKVRLDPSRCVGHAQCYAVDPDLFPIDDSGNSILAEHEVRPEDMQLTRDGVAACPEMALILEEDDAD
notes: also called ferredoxin Rv1786; mtb_1786
On to B2, for which, in assay [2], binding was characterised by a dissociation constant (Kd) of 84 ± 2 nM; the koff (in general, a measure of how fast the partners let go of each other) worked out at 0.0423 ± 0.0005 s⁻¹; the kon (in general, a measure of how fast the partners come together) came to 502000 M⁻¹ s⁻¹. Further, the dH in assay [3] was -45 ± 9 kJ/mol.
